The source of these data is patent US5929223.

In the series the target is T1, dCREB2-a (Drosophila melanogaster) (UniProt Q9VWW0).
T1 sequence: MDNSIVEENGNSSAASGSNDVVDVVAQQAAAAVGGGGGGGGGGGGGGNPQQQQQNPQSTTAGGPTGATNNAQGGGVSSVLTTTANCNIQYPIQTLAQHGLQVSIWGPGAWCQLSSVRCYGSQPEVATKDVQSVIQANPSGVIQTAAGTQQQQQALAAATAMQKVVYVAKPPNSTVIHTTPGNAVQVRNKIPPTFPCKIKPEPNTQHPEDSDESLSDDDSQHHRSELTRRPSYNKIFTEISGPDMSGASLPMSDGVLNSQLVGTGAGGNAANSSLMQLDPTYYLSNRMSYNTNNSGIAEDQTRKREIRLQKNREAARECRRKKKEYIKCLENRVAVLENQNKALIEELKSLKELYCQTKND
As to the kind of experiment: cell_activity. The note with it: F9 cells, with PKA, relative to PKA alone.

The substance “D(-71) CAT somatostatin promoter CRE fragment” returned an activity of 5.4 fold.
